Measurements published in patent US10188742B2, “Bi-specific antibodies and uses thereof” (ACADEMIA SINICA, priority 2014, dated 2019).

Legend:
[1] = test system: Jurkat T cells (Tag-72 positive); test: Cancer cell selectivity of hE11 BsAbs (surface immunofluorescence); format: cell-based, human; conditions: culture medium, FIG. 10
Procedure: PEG2×TAG72 or control PEG2×DNS BsAbs (10 μg/mL) were incubated with A-375 (TAG72−), MCF-7 (TAG72+), Jurkat (TAG72+) or OVCAR-3 (TAG72+) cells at 4° C. for 30 min followed by FITC-labeled goat anti-human immunoglobulin second antibody (2 μg/mL) (Jackson ImmunoResearch Laboratories, West Grove, Pa.) or FITC-labeled 4arm-PEG (2 μg/mL). Tumor-specific targeting of PEGylated compounds was also examined by staining A431 (EGFR^high), and Raji (CD19^high) cell lines with 10 μg/mL of h6.3Fab×EGFR or h6.3Fab×CD19 BsAbs in PBS containing 0.05% BSA (staining buffer) at 4° C. for 30 min. The cells were washed with cold PBS for 3 times. […] After washing with cold PBS, the surface fluorescence of 10^4 viable cells was measured by FACScaliber flow cytometer (Becton Dickinson, Mountain View, Calif., USA) then analyzed with Flowjo (Tree Star Inc., San Carlos, Calif., USA). […]
The binding specificity of monovalent BsAbs with their target proteins was measured by collecting the culture medium of BsAbs producing cells, adding the collected medium to cells that expressed the target protein, then determining the binding by ELSA. After washing the cells, the bound BsAbs were detected by FITC-labeled goat anti-human immunoglobulin second antibody. […]

[2] = test system: mucin (TAG-72 tumor antigen); test: ELISA antigen binding of hE11 BsAbs; conditions: FIG. 6A
Procedure: The anti-PEG binding specificity of BsAbs was measured by adding graded concentrations of PEG2×TAG72, PEG2×DNS, hCC49 scFv, h6.3Fab×EGFR or h6.3Fab×CD19 in 50 μL 2% skim milk to the mucin, BSA-PEG5000, NH2-PEG3k-NH2 or BSA coated plates at RT for 1 h. The plates were washed with PBS-T (PBS containing 0.05% Tween-20) three times. Rabbit anti-6×His (2 μg/mL) supplemented with HRP-conjugated goat anti-rabbit (2 μg/mL) or HRP-conjugated goat Ig anti human IgG Fab (2 μg/mL) (Jackson ImmunoResearch Laboratories, West Grove, Pa.) in 50 μL dilution buffer were added for 1 h at room temperature. The plates were washed with PBS-T (PBS containing 0.05% Tween-20) three times and with PBS two times. Bound peroxidase activity was measured by adding 150 μL/well ABTS substrate solution (BioLegend, San Diego, Calif.) for 30 min at room temperature. The absorbance (405 nm) of wells was measured in a microplate reader (Molecular Device, Menlo Park, Calif.).
Binding of the BsAbs was detected by ELISA. Microtiter plates were first coated with antigens and then PEG2×TAG72, PEG2×DNS BsAbs or hCC49 (anti-TAG72) single chain antibody was added. After the plates were extensively washed to remove unbound antibodies, the remaining bound antibodies in each well were detected with HRP-conjugated secondary antibody. […] In sum, PEG2×TAG72 anti-PEG (hE11) BsAb of example 1.2 can bind both PEG and tumor antigens.

| binding to mucin [2] | Molecule | binding of monovalent BsAb to Jurkat T cells [1] |
| --- | --- | --- |
|  | PEG×TAG72: monovalent BsAb: hE11 anti-PEG Fab fused to anti-TAG72 scFv (example 2.1) (protein) light: DVVMTQSPLSLPVTLGQPASISCRSSKSIVHSNGNTYLEWFQQRPGQSPRRLIYKVSKRMSGVPDRFSGSGSGTDFTLKISRVEAEDVGVYYCSQGSHVPPTFGGGTKVEIKRTVAAPSVFIFPPSDEQLKSGTASVVCLLNNFYPREAKVQWKVDNALQSGNSQESVTEQDSKDSTYSLSSTLTLSKADYEKHKLYACEVTHQGLSSPVTKSFNRGEC heavy: QVQLVQSGAEVKKPGASVKVSCKASGYTFTTYTMNWVRQAPGQGLEWMGYIIPSSGYVDYNQKFKGRVTMTRDTSTSTVYMELSSLRSEDTAVYYCVRSLDGYFWFAYWGQGTLVTVSSASTKGPSVFPLAPSSKSTSGGTAALGCLVKDYFPEPVTVSWNSGALTSGVHTFPAVLQSSGLYSLSSVVTVPSSSLGTQTYICNVNHKPSNTKVDKRVVDLVTVSSASTGGGSGQLGGGGSQVQLVQSGAEVKKPGASVKVSCKASGYTFTDHAIHWVRQAPGQCLEWMGYFSPGNDDFKYSQKFQGRVTITADKSASTAYMELSSLRSEDTAVYYCARSWIMQYWGQGTLVTVSSGGGGSGGGGSGGGGSDIVMTQSPDSLAVSLGERATINCKSSQSVLYSSNNKNYLAWYQQKPGQPPKLLIYWASTRESGVPDRFSGSGSGTDFTLTISSLQAEDVAVYYCQQYYSYPLTFGCGTKVEIKTRHHHHHH | bound to Jurkat T cells |
| bound to mucin | hcc49 scFv: humanized single-chain antibody fragment against TAG-72 antigen (protein) scFv: QVQLVQSGAEVKKPGASVKVSCKASGYTFTDHAIHWVRQAPGQCLEWMGYFSPGNDDFKYSQKFQGRVTITADKSASTAYMELSSLRSEDTAVYYCARSWIMQYWGQGTLVTVSSGGGGSGGGGSGGGGSDIVMTQSPDSLAVSLGERATINCKSSQSVLYSSNNKNYLAWYQQKPGQPPKLLIYWASTRESGVPDRFSGSGSGTDFTLTISSLQAEDVAVYYCQQYYSYPLTFGCGTKVEIK |  |
